# Laboratory results from patent US20200405854A1, “Combination Therapies Comprising Daratumumab, Bortezomib, Thalidomide and Dexamethasone and Their Uses” (Janssen Biotech, Inc., priority 2019, published 2020).
# Columns and labels:
# Type in all cases: in vivo, human
# [1] = system: patients with relapsed or refractory multiple myeloma; assay: SIRIUS open-label monotherapy trial, efficacy
# Excerpt: (§1) Treatment continued until unacceptable toxicity or disease progression.
# The median patient age was 63.5 years (range: 31 to 84 years), 49% were male and 79% were Caucasian. Patients had received a median of 5 prior lines of therapy. […] Prior therapies included bortezomib (99%), lenalidomide (99%), pomalidomide (63%) and carfilzomib (50%).
# [2] = system: patients with relapsed or refractory multiple myeloma; assay: Study GEN501 open-label dose escalation monotherapy trial, efficacy
# Excerpt: as §1
# Seventy-four percent of patients had received prior ASCT. Prior therapies included bortezomib (100%), lenalidomide (95%), pomalidomide (36%) and carfilzomib (19%).
# [3] = system: adult patients with relapsed and refractory multiple myeloma; assay: Monotherapy safety, three open-label clinical trials
# Excerpt: Serious adverse reactions were reported in 51 (33%) patients.
substance,measurement,setting,value
"DARZALEX: immunoglobulin G1 kappa (IgG1κ) human monoclonal antibody against CD38 antigen; HC SEQ ID NO: 9, LC SEQ ID NO: 10",Overall response rate (ORR),[1]; N = 106,29.2%
same,Partial response (PR),[1]; in vivo,17.0%
same,Stringent complete response (sCR),[1]; in vivo,2.8%
same,Very good partial response (VGPR),[1]; in vivo,9.4%
same,median duration of response,[1]; in vivo,7.4 months
same,median time to response,[1]; in vivo,1 month
same,Complete response (CR),[1]; number of patients,0
same,Overall response rate (ORR),[1]; number of patients,31
same,Partial response (PR),[1]; number of patients,18
same,Stringent complete response (sCR),[1]; number of patients,3
same,Very good partial response (VGPR),[1]; number of patients,10
same,"CR, number of patients","[2]; 16 mg/kg, 42 patients",1
same,Overall response rate,"[2]; 16 mg/kg, 42 patients",36%
same,"VGPR, number of patients","[2]; 16 mg/kg, 42 patients",3
same,median duration of response,[2]; in vivo,not estimable
same,median time to response,[2]; in vivo,1 month
same,"Anemia, laboratory abnormality",[3]; Any Grade,45%
same,Arthralgia,[3]; Any Grade,17%
same,Back pain,[3]; Any Grade,23%
same,Chills,[3]; Any Grade,10%
same,Constipation,[3]; Any Grade,15%
same,Cough,[3]; Any Grade,21%
same,Decreased appetite,[3]; Any Grade,15%
same,Diarrhea,[3]; Any Grade,16%
same,Dyspnea,[3]; Any Grade,15%
same,Fatigue,[3]; Any Grade,39%
same,Headache,[3]; Any Grade,12%
same,Hypertension,[3]; Any Grade,10%
same,Infusion reaction,[3]; Any Grade,48%
same,"Lymphopenia, laboratory abnormality",[3]; Any Grade,72%
same,Musculoskeletal chest pain,[3]; Any Grade,12%
same,Nasal congestion,[3]; Any Grade,17%
same,Nasopharyngitis,[3]; Any Grade,15%
same,Nausea,[3]; Any Grade,27%
same,"Neutropenia, laboratory abnormality",[3]; Any Grade,60%
same,Pain in extremity,[3]; Any Grade,15%
same,Pneumonia,[3]; Any Grade,11%
same,Pyrexia,[3]; Any Grade,21%
same,"Thrombocytopenia, laboratory abnormality",[3]; Any Grade,48%
same,Upper respiratory tract infection,[3]; Any Grade,20%
same,Vomiting,[3]; Any Grade,14%
same,"Anemia, laboratory abnormality",[3]; Grade 3,19%
same,Arthralgia,[3]; Grade 3,0%
same,Back pain,[3]; Grade 3,2%
same,Chills,[3]; Grade 3,0%
same,Constipation,[3]; Grade 3,0%
same,Cough,[3]; Grade 3,0%
same,Decreased appetite,[3]; Grade 3,1%
same,Diarrhea,[3]; Grade 3,1%
same,Dyspnea,[3]; Grade 3,1%
same,Fatigue,[3]; Grade 3,2%
same,Headache,[3]; Grade 3,1%
same,Hypertension,[3]; Grade 3,5%
same,Infusion reaction,[3]; Grade 3,3%
same,"Lymphopenia, laboratory abnormality",[3]; Grade 3,30%
same,Musculoskeletal chest pain,[3]; Grade 3,1%
same,Nasal congestion,[3]; Grade 3,0%
same,Nasopharyngitis,[3]; Grade 3,0%
same,Nausea,[3]; Grade 3,0%
same,"Neutropenia, laboratory abnormality",[3]; Grade 3,17%
same,Pain in extremity,[3]; Grade 3,1%
same,Pneumonia,[3]; Grade 3,6%
